The assay addresses T1, GST-CTD (C-terminal domain of HIV-1 integrase, aa 201-288) (HIV-1 (Hx3B), UniProt P04585 1348-1435).
T1 construct: Integrase (IN) of HIV-1, C-terminal domain aa 201-288; template HIV-1 Hx3B DNA (P04585 is isolate HXB2); also called IN-CTD; GST-IN-CTD(aa 201-288); source: pGEX3xPL construct; on glutathione sepharose 4B beads (pull-down) or as GST-tagged protein (AlphaScreen)
Put plainly: AlphaScreen or HTRF; competition: GST-CTD (0.03 uM) with Bio-TAR RNA (0.1 uM), increasing INI1(183-304) as third component; low salt; four-parameter dose-response fit. The note with it: both partners purified. Background: Alpha assays give light when donor and acceptor beads are brought close together.

The IC50 is the midpoint of a concentration-inhibition curve.

B1: His6-SUMO-INI1_(183-304) (domain or fragment, UniProt Q12824 183-304, looked up)
chain: PEVLVPIRLDMEIDGQKLRDAFTWNMNEKLMTPEMFSEILCDDLDLNPLTFVPAIASAIRQQIESYPTDSILEDQSDQRVIIKLNIHVGNISLVDQFEWDMSEKENSPEKFALKLCSELGLG
notes: INI1/SMARCB1, residues 183-304 (Rpt1, linker and part of Rpt2); Vector pET28a-h6-smt3; also called 6His-SUMO-INI1_(183-304); source: E. coli; clarified bacterial cell lysate for the pull-down
B1: the half-maximal inhibitory concentration (IC50) was approximately 5 nM.

The values are drawn from paper PMC8115288, “INI1/SMARCB1 Rpt1 domain mimics TAR RNA in binding to integrase to facilitate HIV-1 replication” (Nature Communications, 2021).
